Test results: the supplement of paper PMC11780869

Tested on: Bacillus subtilis
Experiment: cleaved RNA product abundance (RNA/gDNA barcode ratio) relative to median wild-type variant (ratio to wild type); higher = more accumulation of the downstream cleavage product
Conditions: cleavage site: cggR-gapA (positions -7 to +36 mutated)
Procedure, shortened: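 Cleaved product abundance was measured with barcoded reporter mRNAs (truncated aprE or tetM) carrying mutagenized RNase Y cleavage-site windows in the B. subtilis chromosome. Cultures in LB at 37°C grew from OD600 0.0003 to 0.3. Gel-selected cleaved RNA was reverse transcribed and barcode-sequenced with genomic DNA barcodes, and the RNA:gDNA barcode ratio per construct was scaled to the median construct bearing the unmutated site.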

[1] = experiment (reporter, strain, medium): exp 4a: truncated aprE reporter, strain BJT201 with 2% xylose (RNase J1 expressed)
[2] = experiment (reporter, strain, medium): exp 2b: truncated aprE reporter, strain BJT200
[3] = experiment (reporter, strain, medium): exp 6: tetM reporter, strain 168

Sequence	cleaved RNA product abundance [1]	cleaved RNA product abundance [2]	cleaved RNA product abundance [3]
ACAGACGAAGGAGCCGCAAAGAAGTTATTAAGGGATGAATAATACCTCAATATAAATACCTCTCACTTATTTAAA	0.162		
ACAGACGAAGGAGCCGCAAAGAAGTTATTAAGGGATGAATAATACCTCAATATAAATATCTCTCACTTATTAAAG	0.148		
ACAGACGAAGGAGCCGCAAAGAAGTTATTAAGGGATGAATAATACCTCAATATAAATATCTCTCACTTATTTAAA	0.152	0.117	0.151
ACAGACGAAGGAGCCGCAAAGAAGTTATTAAGGGATGAATAATACCTCAATATAAATTTCTCTCACTTATTTAAA	0.15		
ACAGACGAAGGAGCCGCAAAGAAGTTATTAAGGGATGAATAATACCTCAATATAATTATCTCTCACTTATTTAAA	0.165		
ACAGACGAAGGAGCCGCAAAGAAGTTATTAAGGGATGAATAATACCTCAATATACATATCTCTCACTTATTTAAA	0.123		
ACAGACGAAGGAGCCGCAAAGAAGTTATTAAGGGATGAATAATACCTCAATATAGATATCTCTCACTTATTTAAA	0.147		
ACAGACGAAGGAGCCGCAAAGAAGTTATTAAGGGATGAATAATACCTCAATATATATATCTCTCACTTATTTAAA	0.123		
ACAGACGAAGGAGCCGCAAAGAAGTTATTAAGGGATGAATAATACCTCAATATTAATATCTCTCACTTATTTAAA	0.0425	0.0803	0.0694
ACAGACGAAGGAGCCGCAAAGAAGTTATTAAGGGATGAATAATACCTCAATTTAAATATCTCTCACTTATTTAAA	0.0904	0.0845	
ACAGACGAAGGAGCCGCAAAGAAGTTATTAAGGGATGAATAATACCTCATTATAAATATCTCTCACTTATTTAAA	0.117		
ACAGACGAAGGAGCCGCAAAGAAGTTATTAAGGGATGAATAATACCTCCATATAAATATCTCTCACTTATTTAAA	0.092	0.069	
ACAGACGAAGGAGCCGCAAAGAAGTTATTAAGGGATGAATAATACCTCGATATAAATATCTCTCACTTATTTAAA	0.103	0.0828	
ACAGACGAAGGAGCCGCAAAGAAGTTATTAAGGGATGAATAATACCTCTATATAAATATCTCTCACTTATTTAAA	0.156		
ACAGACGAAGGAGCCGCAAAGAAGTTATTAAGGGATGAATAATACCTGAATATAAATATCTCTCACTTATTTAAA	0.107	0.093	
ACAGACGAAGGAGCCGCAAAGAAGTTATTAAGGGATGAATAATACCTTAATATAAATATCTCTCACTTATTTAAA	0.424		
ACAGACGAAGGAGCCGCAAAGAAGTTATTAAGGGATGAATAATACGTCAATATAAATATCTCTCACTTATTTAAA	0.0816	0.0926	
ACAGACGAAGGAGCCGCAAAGAAGTTATTAAGGGATGAATAATACTTCAATATAAATATCTCTCACTTATTTAAA	0.111	0.094	
ACAGACGAAGGAGCCGCAAAGAAGTTATTAAGGGATGAATAATAGCTCAATATAAATATCTCTCACTTATTTAAA	0.13		
ACAGACGAAGGAGCCGCAAAGAAGTTATTAAGGGATGAATAATATCTCAATATAAATATCTCTCACTTATTTAAA	0.116	0.0986	
ACAGACGAAGGAGCCGCAAAGAAGTTATTAAGGGATGAATAATCAATCAATATAAATATCTCTCACTTATTTAAA	0.107	0.13	
ACAGACGAAGGAGCCGCAAAGAAGTTATTAAGGGATGAATAATCACACAATATAAATATCTCTCACTTATTTAAA	0.142	0.114	
ACAGACGAAGGAGCCGCAAAGAAGTTATTAAGGGATGAATAATCACCCAATATAAATATCTCTCACTTATTTAAA	0.129		

Sequence	cleaved RNA product abundance [1]	cleaved RNA product abundance [2]	cleaved RNA product abundance [3]
ACAGACGAAGGAGCCGCAAAGAAGTTATTAAGGGATGAATAATCACTAAATATAAATATCTCTCACTTATTTAAA	0.142		
ACAGACGAAGGAGCCGCAAAGAAGTTATTAAGGGATGAATAATCACTCAAAATAAATATCTCTCACTTATTTAAA	0.122	0.0846	
ACAGACGAAGGAGCCGCAAAGAAGTTATTAAGGGATGAATAATCACTCAACATAAATATCTCTCACTTATTTAAA	0.123		
ACAGACGAAGGAGCCGCAAAGAAGTTATTAAGGGATGAATAATCACTCAAGATAAATATCTCTCACTTATTTAAA		0.0892	
ACAGACGAAGGAGCCGCAAAGAAGTTATTAAGGGATGAATAATCACTCAATAAAAATATCTCTCACTTATTTAAA	0.0861		
ACAGACGAAGGAGCCGCAAAGAAGTTATTAAGGGATGAATAATCACTCAATATAAAAATCTCTCACTTATTTAAA	0.136		
ACAGACGAAGGAGCCGCAAAGAAGTTATTAAGGGATGAATAATCACTCAATATAAAGATCTCTCACTTATTTAAA	0.0885		
ACAGACGAAGGAGCCGCAAAGAAGTTATTAAGGGATGAATAATCACTCAATATAAATACCTCTCACTTATTTAAA	0.061		
ACAGACGAAGGAGCCGCAAAGAAGTTATTAAGGGATGAATAATCACTCAATATAAATAGCTCTCACTTATTTAAA	0.101		
ACAGACGAAGGAGCCGCAAAGAAGTTATTAAGGGATGAATAATCACTCAATATAAATATCTCTCACTTATTTAAA	0.14	0.111	0.0875
ACAGACGAAGGAGCCGCAAAGAAGTTATTAAGGGATGAATAATCACTCAATATAAATTTCTCTCACTTATTTAAA	0.112		
ACAGACGAAGGAGCCGCAAAGAAGTTATTAAGGGATGAATAATCACTCAATATAATTATCTCTCACTTATTTAAA	0.0768		
ACAGACGAAGGAGCCGCAAAGAAGTTATTAAGGGATGAATAATCACTCAATATACATATCTCTCACTTATTTAAA	0.109		
ACAGACGAAGGAGCCGCAAAGAAGTTATTAAGGGATGAATAATCACTCAATATAGATATCTCTCACTTATTTAAA	0.116	0.143	
ACAGACGAAGGAGCCGCAAAGAAGTTATTAAGGGATGAATAATCACTCAATATATATATCTCTCACTTATTTAAA	0.132		
ACAGACGAAGGAGCCGCAAAGAAGTTATTAAGGGATGAATAATCACTCAATATTAATATCTCTCACTTATTTAAA	0.0358		
ACAGACGAAGGAGCCGCAAAGAAGTTATTAAGGGATGAATAATCACTCAATCTAAATATCTCTCACTTATTTAAA	0.0379		
ACAGACGAAGGAGCCGCAAAGAAGTTATTAAGGGATGAATAATCACTCACTATAAATATCTCTCACTTATTTAAA	0.0806	0.0967	
ACAGACGAAGGAGCCGCAAAGAAGTTATTAAGGGATGAATAATCACTCAGTATAAATATCTCTCACTTATTTAAA	0.0778		
ACAGACGAAGGAGCCGCAAAGAAGTTATTAAGGGATGAATAATCACTCGATATAAATATCTCTCACTTATTTAAA	0.0689		
ACAGACGAAGGAGCCGCAAAGAAGTTATTAAGGGATGAATAATCACTCTATATAAATATCTCTCACTTATTTAAA	0.155	0.0929	
ACAGACGAAGGAGCCGCAAAGAAGTTATTAAGGGATGAATAATCACTGAATATAAATATCTCTCACTTATTTAAA	0.0697	0.0838	
